The text below walks through data of article PMC12102759.

The chains are these.
B1: PAIP1 peptide 126-141 (Polyadenylate-binding protein-interacting protein 1), 16-mer library wild type / PABPC1 PABC (PABPC1 PABC domain, residues 544-623) (parent)
chain 1: SKLSVNAPEFYPSGYS
chain 2: PLTASMLASAPPQEQKQMLGERLFPLIQAMHPTLAGKITGMLLEIDNSELLHMLESPESLRSKVDEAVAVLQAHQAKEAA

Variants of B1 are the subject of this experiment. Put plainly: proteomic peptide phage display deep mutational scan (ProP-PD DMS): M13 P8 16-mer library selected against immobilised GST-tagged bait for four days (rounds), NGS of the eluted pools per day and pseudo-replica. The note with it: with PABPC1 PABC (PABPC1 PABC domain, residues 544-623); bait immobilised on MaxiSorp plates (10 µg), library pre-cleared on GST, 2 h binding at 4 °C, five washes; one round per day, days 1-4; value from days 2 and 3; keep out of graded; scale: average fractional NGS count over selection days 2 and 3.
On to chain 1 SKLSVNAPEFLPSGYS [chain 1 Y11L], for which the screen value was 0.00117.
In the case of chain 1 SKLSVNAPEFWPSGYS [chain 1 Y11W] it was 0.000643.
In the case of chain 1 SKLSVNAPEFSPSGYS [chain 1 Y11S] it was 0.000332; in that of chain 1 SKLSVNAPEFTPSGYS [chain 1 Y11T], 0.000142.
In the case of chain 1 SKLSVNAPEFVPSGYS [chain 1 Y11V] it was 0.00109; in that of chain 1 SKLSVNAPEFDPSGYS [chain 1 Y11D], 0.000603; in that of chain 1 SKLSVNAPEFAPSGYS [chain 1 Y11A], 0.000962.
With chain 1 SKLSVNAPEFFPSGYS [chain 1 Y11F], the screen value worked out at 0.000586.
Regarding chain 1 SKLSVNAPEFRPSGYS [chain 1 Y11R], the screen value was 0.000552.
Under chain 1 SKLSVNAPEFHPSGYS [chain 1 Y11H] stands 0.000612.
Under chain 1 SKLSVNAPEFYPSGLS [chain 1 Y15L] stands 0.000221; under chain 1 SKLSVNAPEFYPSGWS [chain 1 Y15W], 0.000396; under chain 1 SKLSVNAPEFYPSGMS [chain 1 Y15M], 4.17e-05.
Under chain 1 SKLSVNAPEFYPSGFS [chain 1 Y15F] stands 0.000589; under chain 1 SKLSVNAPEFYPSGVS [chain 1 Y15V], 0.000741; under chain 1 SKLSVNAPEFYPSGKS [chain 1 Y15K], 0.00083.
Consider chain 1 SKLSVNAPEFYPSGHS [chain 1 Y15H], for which the screen value was found to be 0.000264.
In the case of chain 1 SKLSVNAPEFYPSGAS [chain 1 Y15A] it was 0.00116.
Turning to chain 1 SKLSVNAPEFYPSGES [chain 1 Y15E], the screen value was 7.22e-05.
Under chain 1 SKLSVNAPEFYPSGNS [chain 1 Y15N] stands 0.000304; under chain 1 SKLSVNAPEFYPSGTS [chain 1 Y15T], 0.000348.
In the case of chain 1 SKLSVNAPEFYPSGDS [chain 1 Y15D] it was 0.000552.
Consider chain 1 SKLSVNAPEFYPSGSS [chain 1 Y15S], for which the screen value came to 0.00124.
In the case of chain 1 SKLSVNAPEFYPSGQS [chain 1 Y15Q] it was 0.000411; in that of chain 1 SKLSVNAPEFYPSGIS [chain 1 Y15I], 7.69e-05; in that of chain 1 SKLSVNAPEFYPSGRS [chain 1 Y15R], 0.00115.
In the case of chain 1 SKLFVNAPEFYPSGYS [chain 1 S4F] it was 0.000754; in that of chain 1 SKLQVNAPEFYPSGYS [chain 1 S4Q], 0.00694; in that of chain 1 SKLVVNAPEFYPSGYS [chain 1 S4V], 9.02e-05.
For the variant chain 1 SKLYVNAPEFYPSGYS [chain 1 S4Y], the screen value is 0.000225.
Under chain 1 SKLRVNAPEFYPSGYS [chain 1 S4R] stands 0.000365.
Under chain 1 SKLMVNAPEFYPSGYS [chain 1 S4M] stands 8.55e-05; under chain 1 SKLNVNAPEFYPSGYS [chain 1 S4N], 8.32e-05; under chain 1 SKLAVNAPEFYPSGYS [chain 1 S4A], 0.00227.
Under chain 1 SKLGVNAPEFYPSGYS [chain 1 S4G] stands 0.000919; under chain 1 SKLPVNAPEFYPSGYS [chain 1 S4P], 0.000535.
For chain 1 SKLTVNAPEFYPSGYS [chain 1 S4T], the screen value worked out at 0.000487.
In the case of chain 1 SKLEVNAPEFYPSGYS [chain 1 S4E] it was 0.000106; in that of chain 1 SKLDVNAPEFYPSGYS [chain 1 S4D], 0.
Regarding chain 1 SKLKVNAPEFYPSGYS [chain 1 S4K], the screen value was 0.000353.
In the case of chain 1 SKLLVNAPEFYPSGYS [chain 1 S4L] it was 0.000589.
Under chain 1 SKLSVNASEFYPSGYS [chain 1 P8S] stands 0.000241.
Under chain 1 SKLSVNADEFYPSGYS [chain 1 P8D] stands 0.000406; under chain 1 SKLSVNAAEFYPSGYS [chain 1 P8A], 0.000105.
With chain 1 SKLSVNANEFYPSGYS [chain 1 P8N], the screen value was found to be 0.0134.
Turning to chain 1 SKLSVNAVEFYPSGYS [chain 1 P8V], the screen value was 0.00064.
In the case of chain 1 SKLSVNAIEFYPSGYS [chain 1 P8I] it was 0.000615.
Under chain 1 SKLSVNAREFYPSGYS [chain 1 P8R] stands 0.000635.
Under chain 1 SKLSVNAGEFYPSGYS [chain 1 P8G] stands 0.000696.
For the variant chain 1 SKLSVNAFEFYPSGYS [chain 1 P8F], the screen value worked out at 0.000185.
In the case of chain 1 SKLSVNAKEFYPSGYS [chain 1 P8K] it was 8.32e-05.
Under chain 1 SKLSVNAMEFYPSGYS [chain 1 P8M] stands 0.00039; under chain 1 SKLSVNAYEFYPSGYS [chain 1 P8Y], 0.0021.
Consider chain 1 SKLSVNALEFYPSGYS [chain 1 P8L], for which the screen value stood at 0.000643.
In the case of chain 1 SKLSVNAWEFYPSGYS [chain 1 P8W] it was 0.000763.
In the case of chain 1 SKLSVNAQEFYPSGYS [chain 1 P8Q] it was 0.000383.
In the case of chain 1 SKLSVNAPEFYPSAYS [chain 1 G14A] it was 0.00104.
As to chain 1 SKLSVNAPEFYPSEYS [chain 1 G14E], the screen value stood at 0.000246.
In the case of chain 1 SKLSVNAPEFYPSIYS [chain 1 G14I] it was 0.000195; in that of chain 1 SKLSVNAPEFYPSTYS [chain 1 G14T], 0.000205.
In the case of chain 1 SKLSVNAPEFYPSRYS [chain 1 G14R] it was 0.000231.
In the case of chain 1 SKLSVNAPEFYPSKYS [chain 1 G14K] it was 0.000153.
As to chain 1 SKLSVNAPEFYPSQYS [chain 1 G14Q], the screen value was 9.29e-05.
Under chain 1 SKLSVNAPEFYPSPYS [chain 1 G14P] stands 0.00116.
chain 1 SKLSVNAPEFYPSYYS [chain 1 G14Y]: the screen value is 0.00125.
Under chain 1 SKLSVNAPEFYPSSYS [chain 1 G14S] stands 0.000279; under chain 1 SKLSVNAPEFYPSMYS [chain 1 G14M], 0.000578; under chain 1 SKLSVNAPEFYPSVYS [chain 1 G14V], 0.000565.
Under chain 1 SKLSVPAPEFYPSGYS [chain 1 N6P] stands 0; under chain 1 SKLSVYAPEFYPSGYS [chain 1 N6Y], 0.000705; under chain 1 SKLSVWAPEFYPSGYS [chain 1 N6W], 0.000917.
chain 1 SKLSVHAPEFYPSGYS [chain 1 N6H]: the screen value is 0.000862.
Under chain 1 SKLSVVAPEFYPSGYS [chain 1 N6V] stands 0.000215; under chain 1 SKLSVGAPEFYPSGYS [chain 1 N6G], 0.000194.
In the case of chain 1 SKLSVLAPEFYPSGYS [chain 1 N6L] it was 0.00023; in that of chain 1 SKLSVTAPEFYPSGYS [chain 1 N6T], 0.000385; in that of chain 1 SKLSVEAPEFYPSGYS [chain 1 N6E], 0.
Take chain 1 SKLSVRAPEFYPSGYS [chain 1 N6R]: the screen value turned out to be 0.000467.
Under chain 1 SKLSVFAPEFYPSGYS [chain 1 N6F] stands 0.000327.
Under chain 1 SKLSVAAPEFYPSGYS [chain 1 N6A] stands 0.000611; under chain 1 SKLSVMAPEFYPSGYS [chain 1 N6M], 0.000149.
Under chain 1 SKLSVIAPEFYPSGYS [chain 1 N6I] stands 0.000614; under chain 1 SKLSPNAPEFYPSGYS [chain 1 V5P], 0.00187.
Take chain 1 SKLSMNAPEFYPSGYS [chain 1 V5M]: the screen value worked out at 0.000169.
In the case of chain 1 SKLSSNAPEFYPSGYS [chain 1 V5S] it was 0.00056; in that of chain 1 SKLSKNAPEFYPSGYS [chain 1 V5K], 0.000215.
In the case of chain 1 SKLSQNAPEFYPSGYS [chain 1 V5Q] it was 0.00077; in that of chain 1 SKLSGNAPEFYPSGYS [chain 1 V5G], 9.64e-06.
With chain 1 SKLSHNAPEFYPSGYS [chain 1 V5H], the screen value was found to be 0.000797.
In the case of chain 1 SKLSNNAPEFYPSGYS [chain 1 V5N] it was 0.000152.
On to chain 1 SKLSANAPEFYPSGYS [chain 1 V5A], for which the screen value is 0.00035.
Consider chain 1 SKLSLNAPEFYPSGYS [chain 1 V5L], for which the screen value came out at 0.000898.
In the case of chain 1 SKLSYNAPEFYPSGYS [chain 1 V5Y] it was 0.
Under chain 1 SKLSRNAPEFYPSGYS [chain 1 V5R] stands 0.000262.
